Results as given in US20240400701A1 (LANOVA MEDICINES DEVELOPMENT, published 2024).
Changes are numbered by the printed parent chain. Names and notes keep the numbering of the source.

T1: human AMHRII (anti-Mullerian hormone receptor type 2) (human, UniProt Q16671 18-573)
T1 construct: whole, on cells; also called AMHR2; human AMHR2
T1 sequence (looked up): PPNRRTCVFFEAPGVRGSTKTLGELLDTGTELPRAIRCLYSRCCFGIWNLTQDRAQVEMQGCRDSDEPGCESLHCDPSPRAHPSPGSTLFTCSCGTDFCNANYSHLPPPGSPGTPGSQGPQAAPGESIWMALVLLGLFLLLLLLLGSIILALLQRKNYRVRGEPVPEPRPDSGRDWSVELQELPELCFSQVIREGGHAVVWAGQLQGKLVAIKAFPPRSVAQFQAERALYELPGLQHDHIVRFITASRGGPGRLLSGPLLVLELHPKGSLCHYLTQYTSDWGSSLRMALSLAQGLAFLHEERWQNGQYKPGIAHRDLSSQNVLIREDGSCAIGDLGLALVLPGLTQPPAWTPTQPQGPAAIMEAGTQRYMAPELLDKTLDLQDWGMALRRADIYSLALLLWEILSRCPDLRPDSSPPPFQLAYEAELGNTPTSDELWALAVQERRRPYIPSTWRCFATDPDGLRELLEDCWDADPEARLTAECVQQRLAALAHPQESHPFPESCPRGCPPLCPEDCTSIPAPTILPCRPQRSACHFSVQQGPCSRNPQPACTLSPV

B1: 31D9B3 VH1-VL2.2 hIgG1 (antibody, V domains shown)
VH: QVQLVQSGAEVKKPGASVKVSCKASGYTFTDYWVSWVRQAPGQGLEWMGEIYPKNGVSNFNEKFKGRVTMTTDTSTSTAYMELRSLRSDDTAVYYCARQRDYWGQGTLVTVSS
VL: DVVMTQSPLSLPVTLGQPASISCRSSQSLEYGDRYTYLEWYLQRPGQSPRLLIYGVSNRFSGVPDRFSGSGSGTDFTLKISRVEAEDVGVYYCFQATHDPNTFGQGTKLEIK
notes: Humanized, PTM de-risked (VL G(30D)R), human IgG1; also called 31D9B3 VH1-VL2.2 hlgG1
B2: 31D9B3 VH1.2-VL2 hIgG1 (antibody, V domains shown)
VH: B1 VH with G56D
VL: B1 VL with R34G
notes: Humanized, PTM de-risked (VH G55D), human IgG1; also called 31D9B3 VH1.2-VL2 hlgG1
B3: 31D9B3 VH1.3-VL2 hIgG1 (antibody, V domains shown)
VH: B1 VH with G56Q
VL: B1 VL with R34G
notes: Humanized, PTM de-risked (VH G55Q), human IgG1; also called 31D9B3 VH1.3-VL2 hlgG1
B4: 31D9B3 VH1.2-VL2.2 hIgG1 (antibody, V domains shown)
VH: B1 VH with G56D
VL: B1 VL
notes: Humanized, PTM de-risked, human IgG1; also called 31D9B3 VH1.2-VL2.2 hlgG1
B5: 94C4C3 H3L4 hIgG1 (antibody, V domains shown)
VH: QVQLQESGPGLVKPSETLSLTCTVSGYSITSDYAWNWIRQFPGKGLEWMGYISYSGSISYNPSLKSRITISRDTSKNQFFLKLSSVTAADTAVYYCARSRYSWFDYWGQGTLVTVSS
VL: DIVLTQSPGTLSVSPGERATLSCSASESVDTYGNSFMHWYQQKPGQPPKLLIYRASSLESGIPVRFSGSGSRTDFTLTISRVEAEDFAVYYCQQSNEDPYTFGGGTKLEIK
notes: Humanized, human IgG1; also called 94C4C3 H3L4 hlgG1
B6: 94C4C3 H4L1 hIgG1 (antibody, V domains shown)
VH: B5 VH with S25T, G45K, K82Q
VL: B5 VL with D1E, V13L, P47A, K49R, V64D, R72G, V82L, A84P, L108V
notes: Humanized, human IgG1; also called 94C4C3 H4L1 hlgG1
B7: 94C4C3 H4L2 hIgG1 (antibody, V domains shown)
VH: B5 VH with S25T, G45K, K82Q
VL: B5 VL with D1E, V13L, K49R, V82L, A84P, L108V
notes: Humanized, human IgG1; also called 94C4C3 H4L2 hlgG1
B8: 94C4C3 H3L3 hIgG1 (antibody, V domains shown)
VH: B5 VH
VL: B5 VL with D1E, V13L, K49R
notes: Humanized, human IgG1; also called 94C4C3 H3L3 hlgG1
B9: 94C4C3 H3L2 hIgG1 (antibody, V domains shown)
VH: B5 VH
VL: B5 VL with D1E, V13L, K49R, V82L, A84P, L108V
notes: Humanized, human IgG1; also called 94C4C3 H3L2 hlgG1
B10: 94C4C3 H3L1 hIgG1 (antibody, V domains shown)
VH: B5 VH
VL: B5 VL with D1E, V13L, P47A, K49R, V64D, R72G, V82L, A84P, L108V
notes: Humanized, human IgG1; also called 94C4C3 H3L1 hlgG1
B11: 94C4C3 H1L2 hIgG1 (antibody, V domains shown)
VH: B5 VH with V2L, F41P, M49I, I68V, R72V, F80S
VL: B5 VL with D1E, V13L, K49R, V82L, A84P, L108V
notes: Humanized, human IgG1; also called 94C4C3 H1L2 hlgG1
B12: 94C4C3 H1L3 hIgG1 (antibody, V domains shown)
VH: B5 VH with V2L, F41P, M49I, I68V, R72V, F80S
VL: B5 VL with D1E, V13L, K49R
notes: Humanized, human IgG1; also called 94C4C3 H1L3 hlgG1
B13: 94C4C3 H2L3 hIgG1 (antibody, V domains shown)
VH: B5 VH with V2L, F41P, F80S
VL: B5 VL with D1E, V13L, K49R
notes: Humanized, human IgG1; also called 94C4C3 H2L3 hlgG1
B14: 94C4C3 H2L1 hIgG1 (antibody, V domains shown)
VH: B5 VH with V2L, F41P, F80S
VL: B5 VL with D1E, V13L, P47A, K49R, V64D, R72G, V82L, A84P, L108V
notes: Humanized, human IgG1; also called 94C4C3 H2L1 hlgG1
B15: 94C4C3 H1L4 hIgG1 (antibody, V domains shown)
VH: B5 VH with V2L, F41P, M49I, I68V, R72V, F80S
VL: B5 VL
notes: Humanized, human IgG1; also called 94C4C3 H1L4 hlgG1
B16: 94C4C3 H2L4 hIgG1 (antibody, V domains shown)
VH: B5 VH with V2L, F41P, F80S
VL: B5 VL
notes: Humanized, human IgG1; also called 94C4C3 H2L4 hlgG1
B17: 108F3D1E9 H3L1 hIgG1 (antibody, V domains shown)
VH: B5 VH with Y33F, Y54F, I58T, F80S, R98G, D105A
VL: DIQMTQSPSSLSASVGDRVTITCRASESVDTYGNSFMHWYQQKPGKAPKLLIYRASNLESGVPSRFSGSGSGTDFTLTISSLQPEDFATYYCQQSNEDPYTFGGGTKVEIK
notes: Humanized, human IgG1; also called 108F3D1E9 H3L1 hlgG1
B18: 108F3D1E9 H4L4 hIgG1 (antibody, V domains shown)
VH: B5 VH with Y33F, Y54F, I58T, K82Q, A89E, R98G, D105A
VL: DIVLTQSPSSLSVSVGDRATITCRASESVDTYGNSFMHWYQQKPGQPPKLLIYRASNLESGIPARFSGSGSRTDFTLTISSVQPEDFATYYCQQSNEDPYTFGGGTKLEIK
notes: Humanized, human IgG1; also called 108F3D1E9 H4L4 hlgG1
B19: 108F3D1E9 H4L3 hIgG1 (antibody, V domains shown)
VH: B5 VH with Y33F, Y54F, I58T, K82Q, A89E, R98G, D105A
VL: B18 VL with V13A, A19V, R72G, L108V
notes: Humanized, human IgG1; also called 108F3D1E9 H4L3 hlgG1
B20: 108F3D1E9 H3L4 hIgG1 (antibody, V domains shown)
VH: B5 VH with Y33F, Y54F, I58T, F80S, R98G, D105A
VL: B18 VL
notes: Humanized, human IgG1; also called 108F3D1E9 H3L4 hlgG1
B21: 108F3D1E9 H3L2 hIgG1 (antibody, V domains shown)
VH: B5 VH with Y33F, Y54F, I58T, F80S, R98G, D105A
VL: B17 VL with M4L, A47P, V62I
notes: Humanized, human IgG1; also called 108F3D1E9 H3L2 hlgG1
B22: 108F3D1E9 H4L2 hIgG1 (antibody, V domains shown)
VH: B5 VH with Y33F, Y54F, I58T, K82Q, A89E, R98G, D105A
VL: B17 VL with M4L, A47P, V62I
notes: Humanized, human IgG1; also called 108F3D1E9 H4L2 hlgG1
B23: 108F3D1E9 H4L1 hIgG1 (antibody, V domains shown)
VH: B5 VH with Y33F, Y54F, I58T, K82Q, A89E, R98G, D105A
VL: B17 VL
notes: Humanized, human IgG1; also called 108F3D1E9 H4L1 hlgG1
B24: 108F3D1E9 H3L3 hIgG1 (antibody, V domains shown)
VH: B5 VH with Y33F, Y54F, I58T, F80S, R98G, D105A
VL: B18 VL with V13A, A19V, R72G, L108V
notes: Humanized, human IgG1; also called 108F3D1E9 H3L3 hlgG1
B25: 31D9B3 VH1.2-VL2.3 hIgG1 (antibody, V domains shown)
VH: B1 VH with G56D
VL: B1 VL with D33T, R34G
notes: Humanized, PTM de-risked, human IgG1; also called 31D9B3 VH1.2-VL2.3 hlgG1
B26: 31D9B3 VH1.3-VL2.1 hIgG1 (antibody, V domains shown)
VH: B1 VH with G56Q
VL: B1 VL with D33S, R34G
notes: Humanized, PTM de-risked, human IgG1; also called 31D9B3 VH1.3-VL2.1 hlgG1
B27: 31D9B3 VH1.2-VL2.1 hIgG1 (antibody, V domains shown)
VH: B1 VH with G56D
VL: B1 VL with D33S, R34G
notes: Humanized, PTM de-risked, human IgG1; also called 31D9B3 VH1.2-VL2.1 hlgG1
B28: 31D9B3 VH1.3-VL2.3 hIgG1 (antibody, V domains shown)
VH: B1 VH with G56Q
VL: B1 VL with D33T, R34G
notes: Humanized, PTM de-risked, human IgG1; also called 31D9B3 VH1.3-VL2.3 hlgG1

target: T1, human AMHRII (anti-Mullerian hormone …); assay: FACS on Rko cells over-expressing human AMHR2
Description: (§1) Rko cells over-expressing AMHR2 were harvested from flasks. 100 μl of 1×10⁶ cells/ml of cells were incubated with primary PTM antibodies in 3-fold serial dilutions starting from 300 nM to 0.001 nM for 30 minutes on ice. After being washed with 200 μl of FACS buffer twice, cells were incubated with secondary antibody for 30 minutes on ice. Cells were washed with 200 μl of FACS buffer twice and analyzed by FACS.

| EC50 | Top (MFI) | Binder |
| --- | --- | --- |
| 0.915 nM | 17200 MFI | B1 |
| 1.35 nM | 18200 MFI | B2 |
| 0.976 nM | 17900 MFI | B3 |
| 0.878 nM | 16300 MFI | B4 |

target: T1, human AMHRII (anti-Mullerian hormone …); assay: FACS on CHO-K1 cells over-expressing human AMHR2
Description: as §1, with “CHO-K1” for “Rko”, “over-expressed” for “over-expressing”, “the humanized” for “primary PTM”

| EC50 | Top (MFI) | Binder |
| --- | --- | --- |
| 1.35 nM | 48100 MFI | B5 |
| 1.12 nM | 49500 MFI | B6 |
| 1.02 nM | 48700 MFI | B7 |
| 1.03 nM | 46300 MFI | B8 |
| 1.23 nM | 47700 MFI | B9 |
| 1.32 nM | 51000 MFI | B10 |

target: T1, human AMHRII (anti-Mullerian hormone …); assay: FACS on CHO-K1 cells over-expressing human AMHR2; remark: another data set of the same source
Description: as §1, with “CHO-K1” for “Rko”, “over-expressed” for “over-expressing”, “the humanized” for “primary PTM”

| EC50 | Top (MFI) | Binder |
| --- | --- | --- |
| 0.485 nM | 22400 MFI | B1 |
| 1.46 nM | 49600 MFI | B11 |
| 1.45 nM | 50200 MFI | B12 |
| 1.32 nM | 55800 MFI | B13 |
| 1.31 nM | 52800 MFI | B14 |
| 1.21 nM | 47200 MFI | B15 |
| 1.01 nM | 52500 MFI | B16 |

target: T1, human AMHRII (anti-Mullerian hormone …); assay: FACS on CHO-K1 cells over-expressing human AMHR2; remark: another data set of the same source
Description: as §1, with “CHO-K1” for “Rko”, “over-expressed” for “over-expressing”, “the humanized” for “primary PTM”

| EC50 | Top (MFI) | Binder |
| --- | --- | --- |
| 0.74 nM | 65400 MFI | B17 |
| 0.65 nM | 70600 MFI | B18 |
| 0.74 nM | 67300 MFI | B19 |
| 0.88 nM | 70900 MFI | B20 |
| 0.82 nM | 64600 MFI | B21 |
| 0.68 nM | 67900 MFI | B22 |
| 0.55 nM | 64400 MFI | B23 |
| 0.82 nM | 66700 MFI | B24 |

target: T1, human AMHRII (anti-Mullerian hormone …); assay: FACS on CHO-K1 cells over-expressing human AMHR2; remark: another data set of the same source
Description: as §1, with “CHO-K1” for “Rko”, “over-expressed” for “over-expressing”, “the humanized” for “primary PTM”

| EC50 | Top (MFI) | Binder |
| --- | --- | --- |
| 1.51 nM | 26800 MFI | B2 |
| 1.18 nM | 28000 MFI | B3 |
| 0.617 nM | 12900 MFI | B25 |
| 0.856 nM | 22000 MFI | B4 |
| 1.2 nM | 10900 MFI | B26 |
| 5.68 nM | 10600 MFI | B27 |
| 0.38 nM | 12700 MFI | B28 |
